# From PMC5339894, “G196 epitope tag system: a novel monoclonal antibody, G196, recognizes the small, soluble peptide DLVPR with high affinity” (Scientific Reports, 2017)
# “Also recorded” adds a separate entry of the source.
# Columns and labels:
# [1] = tested on: cellular proteins of HeLa cells; assay: Western blot cross-reaction with cellular proteins; assay type: cell-based, human; details: HeLa cell extracts, Western blot (lanes 3, 4)
# Excerpt: (§1) Short peptides and paired mAbs specific for the sequences of interest are powerful and irreplaceable tools for scientific research. To ascertain the possible versatility of G196-tag as a versatile fusion tag, we generated several human and yeast expression constructs in which the G196-tag was fused to reporter proteins. First, we expressed FLAG- and HA-tagged Emerald GFP (hereafter abbreviated FHG) as a reporter protein, C-terminally fused with a G196-tag (6P12, SDLVPRGSP) in HeLa cells.
# (§2) Figure 5 Application of the G196 epitope tag system for scientific research. (a) Western blot and immunoprecipitation (IP) analysis of FLAG-HA-Emerald GFP (FHG) tagged with C-terminal G196-tag in HeLa cells using mAb G196. HeLa cells were transfected with FHG/pcDNA3 or FHG-G196/pcDNA3. After incubation for two days, the cells were lysed and subjected to Western blotting with anti-FLAG (M2) or G196 mAbs (left panel). These lysates were immunoprecipitated with anti-FLAG (M2) (lanes 7, 8) or G196 (lanes 9, 10) mAbs and subjected to Western blotting with anti-FLAG polyclonal antibody (right panel). (b) Immunofluorescence of GFP- and G196-tagged nuclear protein in HeLa cells using mAb G196. […] Protein extracts were separated by SDS-PAGE and detected with mAb G196 and anti-GFP polyclonal antibody (left panel). […] Asterisk indicates non-specific band also detected using the second Ab alone. […]
# [2] = tested on: FLAG-HA-Emerald GFP tagged with C-terminal G196-tag (FHG-G196); assay: Western blot analysis of HeLa cell extracts; assay type: cell-based, human
# Excerpt: as §1, §2
# Atf1-G196-GFP = assay: immunofluorescence of fission yeast cells; assay type: cell-based
# Description: Yeast cells exponentially growing in YES medium at 30 °C were fixed with 3% formaldehyde and incubated at 18 °C for 30 min. After quenching with 250 mM glycine, the cells were washed with PBSEMS (PBS buffer with 1 mM EGTA, 1 mM MgSO4 and 1.2 M sorbitol), resuspended in PBSEMS containing 5 mg/mL Zymolyase 20T (07663-91, Nacalai Tesque) and 0.1% 2-mercaptoethanol, and incubated at 37 °C for 1 h. The cells were washed three times with PBSEMS and resuspended in PBSEMT (PBS with 1 mM EGTA, 1 mM MgSO4 and 1% Triton X-100) and incubated at room temperature for 30 sec. After washing three times with PBSEM (PBS with 1 mM EGTA and 1 mM MgSO4), the cells were incubated in PBSEMALM (PBS with 1 mM EGTA, 1 mM MgSO4, 0.1% sodium azide, 0.1 M L-lysine and 5% skim milk) for 30 min. The cells were resuspended in PBSEMALM containing G196 mAb (1:1000) and anti-GFP rabbit polyclonal antibody (1:1000). After overnight incubation at room temperature, cells were washed with PBSEMALM three times, then resuspended in PBSEMALM containing anti-mouse antibody conjugated with Alexa 594 (1:100) and anti-rabbit conjugated with Alexa 488 (1:100). After one-hour incubation, the cells were washed with PBSEMAL containing 5% skim milk three times and resuspended in PBS containing 0.1% sodium azide. The cell suspension was mixed with an equal amount of 1% low-melting point agarose with DAPI on glass plates.
# [3] = tested on: N- and C-terminally G196-tagged protein; assay: detection of N- and C-terminally G196-tagged protein; details: this study and refs. 22 and 23
# FHG-G196-NAC1 = assay: immunofluorescence of GFP- and G196-tagged nuclear protein in HeLa cells; assay type: cell-based, human; details: FHG-G196-NAC1, Alexa-594 / Alexa-488 secondary
# Description: Figure 5 Application of the G196 epitope tag system for scientific research. (a) Western blot and immunoprecipitation (IP) analysis of FLAG-HA-Emerald GFP (FHG) tagged with C-terminal G196-tag in HeLa cells using mAb G196. HeLa cells were transfected with FHG/pcDNA3 or FHG-G196/pcDNA3. After incubation for two days, the cells were lysed and subjected to Western blotting with anti-FLAG (M2) or G196 mAbs (left panel). These lysates were immunoprecipitated with anti-FLAG (M2) (lanes 7, 8) or G196 (lanes 9, 10) mAbs and subjected to Western blotting with anti-FLAG polyclonal antibody (right panel). (b) Immunofluorescence of GFP- and G196-tagged nuclear protein in HeLa cells using mAb G196. HeLa cells were transfected with FHG-G196-NAC1/pcDNA3. After incubation for two days, the cells were fixed and incubated with mAb G196 and anti-GFP polyclonal Ab, then stained with Alexa-594 anti-mouse and Alexa-488 anti-rabbit secondary antibodies. (c) Western blot and chromatin immunoprecipitation (ChIP) analysis of Atf1-G196-GFP in fission yeast using mAb G196. A DNA fragment containing the transcription factor atf1 gene fused with the G196 epitope-GFP gene was replaced with the genomic atf1 gene. Protein extracts were separated by SDS-PAGE and detected with mAb G196 and anti-GFP polyclonal antibody (left panel). […] Asterisk indicates non-specific band also detected using the second Ab alone. […]
# [4] = tested on: FLAG-HA-Emerald GFP tagged with C-terminal G196-tag (FHG-G196); assay: immunoprecipitation (IP) from HeLa cell extracts; assay type: cell-based, human
# Excerpt: as §1
# Figure 5 Application of the G196 epitope tag system for scientific research. (a) Western blot and immunoprecipitation (IP) analysis of FLAG-HA-Emerald GFP (FHG) tagged with C-terminal G196-tag in HeLa cells using mAb G196. HeLa cells were transfected with FHG/pcDNA3 or FHG-G196/pcDNA3. After incubation for two days, the cells were lysed and subjected to Western blotting with anti-FLAG (M2) or G196 mAbs (left panel). These lysates were immunoprecipitated with anti-FLAG (M2) (lanes 7, 8) or G196 (lanes 9, 10) mAbs and subjected to Western blotting with anti-FLAG polyclonal antibody (right panel). (b) Immunofluorescence of GFP- and G196-tagged nuclear protein in HeLa cells using mAb G196. HeLa cells were transfected with FHG-G196-NAC1/pcDNA3. After incubation for two days, the cells were fixed and incubated with mAb G196 and anti-GFP polyclonal Ab, then stained with Alexa-594 anti-mouse and Alexa-488 anti-rabbit secondary antibodies. (c) Western blot and chromatin immunoprecipitation (ChIP) analysis of Atf1-G196-GFP in fission yeast using mAb G196. A DNA fragment containing the transcription factor atf1 gene fused with the G196 epitope-GFP gene was replaced with the genomic atf1 gene. Protein extracts were separated by SDS-PAGE and detected with mAb G196 and anti-GFP polyclonal antibody (left panel). GFP-Iws1 expressing cells were used as a negative control. Asterisk indicates non-specific band also detected using the second Ab alone. Schematic representation of the tdh1 locus (right upper panel). The promoter of the tdh1 gene harbors a CRE consensus site. […]
molecule,measurement,setting,value
"mAb G196: mouse mAb (IgG1) raised against GST protein bacterially expressed using the pGEX-2T vector (antibody, V domains shown) VH: QVKLQESGAELVKPGASVKLSCKASGYTFTNYWMHWVKLRPGQGFEWIGEINPSNGGSNYNEKFKRKATLTVDKSSSTAYMQLSSLTSEDSAVFYCSIWDSYFDYWGQGTTLTVSS VL: NIVMTQSPKSMSMSVGERVTLTCKASENVVTYVSWYQQKPEQSPKLLIYGASNRYTGVPDRFTGSGSATDFTLTISSVQAEDLADYHCGQGYSYPYTFGGGTKLEIK",cross-reaction with cellular proteins,[1],did not cross-react with cellular proteins; also recorded: did not (cross-)react with cellular proteins
same,detection of FHG (without G196-tag) by Western blot,[2]; HeLa cells transfected with FHG (lane 3),not detected
same,detection of FHG-G196 by Western blot,"[2]; HeLa cells transfected with FHG-G196, two days (lanes 2, 4)",detected as a single band; also recorded: as a single band at the proper molecular weight
same,immunofluorescence recognition of Atf1,"Atf1-G196-GFP; G196- and GFP-tagged Atf1, mAb 1:1000",recognized G196- and GFP-tagged Atf1
same,immunofluorescence of Atf1 compared with anti-GFP polyclonal,Atf1-G196-GFP; versus polyclonal anti-GFP antibody,comparable to that of a polyclonal anti-GFP antibody
same,detection of N- and C-terminally tagged protein,[3],detected both N- and C-terminally G196-tagged protein
same,immunofluorescence detection of nuclear reporter protein NAC1,FHG-G196-NAC1,successfully detected the nuclear reporter protein
same,immunoprecipitation of reporter lacking G196-tag,"[4]; HeLa cell extracts, FHG (lane 9)",did not immunoprecipitate reporter protein lacking the G196-tag
same,immunoprecipitation of FHG-G196,"[4]; HeLa cell extracts, Western blot with anti-FLAG polyclonal antibody (lane 10)",efficiently immunoprecipited reporter protein
same,immunoprecipitation of FHG-G196 compared with anti-FLAG,[4]; lane 10 versus lane 8,comparable to that of FLAG immunoprecipitates
